*1 amine or outer side, *2 acyl side, *3 side chain or, on linkers, in order; H or OH if unused. Where no end group is shown, it is not given here. Side-chain parts run from the residue outwards. [ ]: non-standard residue; d: D form. The star is where a group is joined. γGlu = O=C(O)[C@H](CCC(=O)[*:2])N[*:1]; Stearoyl = CCCCCCCCCCCCCCCCCC(=O)*; Palmitoyl = CCCCCCCCCCCCCCCC(=O)*; Aib = CC(C)(N)C(=O)O
T1: human GIP receptor (human, UniProt P48546 22-466)
T1 sequence (looked up): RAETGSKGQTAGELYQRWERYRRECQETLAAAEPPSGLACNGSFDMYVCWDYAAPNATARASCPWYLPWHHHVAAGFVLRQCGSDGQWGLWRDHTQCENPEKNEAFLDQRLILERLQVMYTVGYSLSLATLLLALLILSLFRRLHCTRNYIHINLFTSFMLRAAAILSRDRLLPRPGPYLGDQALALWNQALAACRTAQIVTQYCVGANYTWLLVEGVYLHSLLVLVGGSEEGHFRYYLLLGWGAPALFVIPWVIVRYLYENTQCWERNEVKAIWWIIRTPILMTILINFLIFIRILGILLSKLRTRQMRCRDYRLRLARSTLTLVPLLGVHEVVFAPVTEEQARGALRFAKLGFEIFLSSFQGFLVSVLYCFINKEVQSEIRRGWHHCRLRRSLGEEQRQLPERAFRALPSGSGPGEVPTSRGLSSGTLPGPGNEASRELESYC

B1: exendin-4 peptide analogue SEQ ID NO: 54 (peptide)
peptide: Y[Aib]EGTFTSDLSIQK([γGlu-Palmitoyl])DKRKAQDFIEWLKNGGPSSGAPPPS-NH2
modifications: N-terminus assumed
SMILES: CCCCCCCCCCCCCCCC(=O)N[C@@H](CCC(=O)NCCCC[C@H](NC(=O)[C@H](CCC(N)=O)NC(=O)[C@@H](NC(=O)[C@H](CO)NC(=O)[C@H](CC(C)C)NC(=O)[C@H](CC(=O)O)NC(=O)[C@H](CO)NC(=O)[C@@H](NC(=O)[C@H](Cc1ccccc1)NC(=O)[C@@H](NC(=O)CNC(=O)[C@H](CCC(=O)O)NC(=O)C(C)(C)NC(=O)[C@@H](N)Cc1ccc(O)cc1)[C@@H](C)O)[C@@H](C)O)[C@@H](C)CC)C(=O)N[C@@H](CC(=O)O)C(=O)N[C@@H](CCCCN)C(=O)N[C@@H](CCCNC(=N)N)C(=O)N[C@@H](CCCCN)C(=O)N[C@@H](C)C(=O)N[C@@H](CCC(N)=O)C(=O)N[C@@H](CC(=O)O)C(=O)N[C@@H](Cc1ccccc1)C(=O)N[C@H](C(=O)N[C@@H](CCC(=O)O)C(=O)N[C@@H](Cc1c[nH]c2ccccc12)C(=O)N[C@@H](CC(C)C)C(=O)N[C@@H](CCCCN)C(=O)N[C@@H](CC(N)=O)C(=O)NCC(=O)NCC(=O)N1CCC[C@H]1C(=O)N[C@@H](CO)C(=O)N[C@@H](CO)C(=O)NCC(=O)N[C@@H](C)C(=O)N1CCC[C@H]1C(=O)N1CCC[C@H]1C(=O)N1CCC[C@H]1C(=O)N[C@@H](CO)C(N)=O)[C@@H](C)CC)C(=O)O
B2: exendin-4 peptide analogue SEQ ID NO: 55 (peptide)
peptide: Y[Aib]EGTFTSDLSIQK([γGlu-Palmitoyl])DKRAAQLFIEWLKNGGPSSGAPPPS-NH2
modifications: N-terminus assumed
SMILES: CCCCCCCCCCCCCCCC(=O)N[C@@H](CCC(=O)NCCCC[C@H](NC(=O)[C@H](CCC(N)=O)NC(=O)[C@@H](NC(=O)[C@H](CO)NC(=O)[C@H](CC(C)C)NC(=O)[C@H](CC(=O)O)NC(=O)[C@H](CO)NC(=O)[C@@H](NC(=O)[C@H](Cc1ccccc1)NC(=O)[C@@H](NC(=O)CNC(=O)[C@H](CCC(=O)O)NC(=O)C(C)(C)NC(=O)[C@@H](N)Cc1ccc(O)cc1)[C@@H](C)O)[C@@H](C)O)[C@@H](C)CC)C(=O)N[C@@H](CC(=O)O)C(=O)N[C@@H](CCCCN)C(=O)N[C@@H](CCCNC(=N)N)C(=O)N[C@@H](C)C(=O)N[C@@H](C)C(=O)N[C@@H](CCC(N)=O)C(=O)N[C@@H](CC(C)C)C(=O)N[C@@H](Cc1ccccc1)C(=O)N[C@H](C(=O)N[C@@H](CCC(=O)O)C(=O)N[C@@H](Cc1c[nH]c2ccccc12)C(=O)N[C@@H](CC(C)C)C(=O)N[C@@H](CCCCN)C(=O)N[C@@H](CC(N)=O)C(=O)NCC(=O)NCC(=O)N1CCC[C@H]1C(=O)N[C@@H](CO)C(=O)N[C@@H](CO)C(=O)NCC(=O)N[C@@H](C)C(=O)N1CCC[C@H]1C(=O)N1CCC[C@H]1C(=O)N1CCC[C@H]1C(=O)N[C@@H](CO)C(N)=O)[C@@H](C)CC)C(=O)O
B3: exendin-4 peptide analogue SEQ ID NO: 56 (peptide)
peptide: Y[Aib]QGTFTSDLSKQK([γGlu-Palmitoyl])DSRAARDFIEWLKAGGPSSGAPPPS-NH2
modifications: N-terminus assumed
SMILES: CCCCCCCCCCCCCCCC(=O)N[C@@H](CCC(=O)NCCCC[C@H](NC(=O)[C@H](CCC(N)=O)NC(=O)[C@H](CCCCN)NC(=O)[C@H](CO)NC(=O)[C@H](CC(C)C)NC(=O)[C@H](CC(=O)O)NC(=O)[C@H](CO)NC(=O)[C@@H](NC(=O)[C@H](Cc1ccccc1)NC(=O)[C@@H](NC(=O)CNC(=O)[C@H](CCC(N)=O)NC(=O)C(C)(C)NC(=O)[C@@H](N)Cc1ccc(O)cc1)[C@@H](C)O)[C@@H](C)O)C(=O)N[C@@H](CC(=O)O)C(=O)N[C@@H](CO)C(=O)N[C@@H](CCCNC(=N)N)C(=O)N[C@@H](C)C(=O)N[C@@H](C)C(=O)N[C@@H](CCCNC(=N)N)C(=O)N[C@@H](CC(=O)O)C(=O)N[C@@H](Cc1ccccc1)C(=O)N[C@H](C(=O)N[C@@H](CCC(=O)O)C(=O)N[C@@H](Cc1c[nH]c2ccccc12)C(=O)N[C@@H](CC(C)C)C(=O)N[C@@H](CCCCN)C(=O)N[C@@H](C)C(=O)NCC(=O)NCC(=O)N1CCC[C@H]1C(=O)N[C@@H](CO)C(=O)N[C@@H](CO)C(=O)NCC(=O)N[C@@H](C)C(=O)N1CCC[C@H]1C(=O)N1CCC[C@H]1C(=O)N1CCC[C@H]1C(=O)N[C@@H](CO)C(N)=O)[C@@H](C)CC)C(=O)O
B4: exendin-4 peptide analogue SEQ ID NO: 57 (peptide)
peptide: Y[Aib]EGTFTSDLSIQK([γGlu-Palmitoyl])EERAAHEFIEWLKR[Aib]GPSSGAPPPSK-NH2
modifications: N-terminus assumed
SMILES: CCCCCCCCCCCCCCCC(=O)N[C@@H](CCC(=O)NCCCC[C@H](NC(=O)[C@H](CCC(N)=O)NC(=O)[C@@H](NC(=O)[C@H](CO)NC(=O)[C@H](CC(C)C)NC(=O)[C@H](CC(=O)O)NC(=O)[C@H](CO)NC(=O)[C@@H](NC(=O)[C@H](Cc1ccccc1)NC(=O)[C@@H](NC(=O)CNC(=O)[C@H](CCC(=O)O)NC(=O)C(C)(C)NC(=O)[C@@H](N)Cc1ccc(O)cc1)[C@@H](C)O)[C@@H](C)O)[C@@H](C)CC)C(=O)N[C@@H](CCC(=O)O)C(=O)N[C@@H](CCC(=O)O)C(=O)N[C@@H](CCCNC(=N)N)C(=O)N[C@@H](C)C(=O)N[C@@H](C)C(=O)N[C@@H](Cc1c[nH]cn1)C(=O)N[C@@H](CCC(=O)O)C(=O)N[C@@H](Cc1ccccc1)C(=O)N[C@H](C(=O)N[C@@H](CCC(=O)O)C(=O)N[C@@H](Cc1c[nH]c2ccccc12)C(=O)N[C@@H](CC(C)C)C(=O)N[C@@H](CCCCN)C(=O)N[C@@H](CCCNC(=N)N)C(=O)NC(C)(C)C(=O)NCC(=O)N1CCC[C@H]1C(=O)N[C@@H](CO)C(=O)N[C@@H](CO)C(=O)NCC(=O)N[C@@H](C)C(=O)N1CCC[C@H]1C(=O)N1CCC[C@H]1C(=O)N1CCC[C@H]1C(=O)N[C@@H](CO)C(=O)N[C@@H](CCCCN)C(N)=O)[C@@H](C)CC)C(=O)O
B5: exendin-4 peptide analogue SEQ ID NO: 58 (peptide)
peptide: Y[Aib]EGTFTSDLSIQK([γGlu-Stearoyl])ESKAAHEFIEWLKAGGPSSGAPPPSK-NH2
modifications: N-terminus assumed
SMILES: CCCCCCCCCCCCCCCCCC(=O)N[C@@H](CCC(=O)NCCCC[C@H](NC(=O)[C@H](CCC(N)=O)NC(=O)[C@@H](NC(=O)[C@H](CO)NC(=O)[C@H](CC(C)C)NC(=O)[C@H](CC(=O)O)NC(=O)[C@H](CO)NC(=O)[C@@H](NC(=O)[C@H](Cc1ccccc1)NC(=O)[C@@H](NC(=O)CNC(=O)[C@H](CCC(=O)O)NC(=O)C(C)(C)NC(=O)[C@@H](N)Cc1ccc(O)cc1)[C@@H](C)O)[C@@H](C)O)[C@@H](C)CC)C(=O)N[C@@H](CCC(=O)O)C(=O)N[C@@H](CO)C(=O)N[C@@H](CCCCN)C(=O)N[C@@H](C)C(=O)N[C@@H](C)C(=O)N[C@@H](Cc1c[nH]cn1)C(=O)N[C@@H](CCC(=O)O)C(=O)N[C@@H](Cc1ccccc1)C(=O)N[C@H](C(=O)N[C@@H](CCC(=O)O)C(=O)N[C@@H](Cc1c[nH]c2ccccc12)C(=O)N[C@@H](CC(C)C)C(=O)N[C@@H](CCCCN)C(=O)N[C@@H](C)C(=O)NCC(=O)NCC(=O)N1CCC[C@H]1C(=O)N[C@@H](CO)C(=O)N[C@@H](CO)C(=O)NCC(=O)N[C@@H](C)C(=O)N1CCC[C@H]1C(=O)N1CCC[C@H]1C(=O)N1CCC[C@H]1C(=O)N[C@@H](CO)C(=O)N[C@@H](CCCCN)C(N)=O)[C@@H](C)CC)C(=O)O
B6: exendin-4 peptide analogue SEQ ID NO: 59 (peptide)
peptide: Y[Aib]EGTFTSDLSIQK([γGlu-Palmitoyl])EKRAAHEFIEWLKNTGPSSGAPPPS-NH2
modifications: N-terminus assumed
SMILES: CCCCCCCCCCCCCCCC(=O)N[C@@H](CCC(=O)NCCCC[C@H](NC(=O)[C@H](CCC(N)=O)NC(=O)[C@@H](NC(=O)[C@H](CO)NC(=O)[C@H](CC(C)C)NC(=O)[C@H](CC(=O)O)NC(=O)[C@H](CO)NC(=O)[C@@H](NC(=O)[C@H](Cc1ccccc1)NC(=O)[C@@H](NC(=O)CNC(=O)[C@H](CCC(=O)O)NC(=O)C(C)(C)NC(=O)[C@@H](N)Cc1ccc(O)cc1)[C@@H](C)O)[C@@H](C)O)[C@@H](C)CC)C(=O)N[C@@H](CCC(=O)O)C(=O)N[C@@H](CCCCN)C(=O)N[C@@H](CCCNC(=N)N)C(=O)N[C@@H](C)C(=O)N[C@@H](C)C(=O)N[C@@H](Cc1c[nH]cn1)C(=O)N[C@@H](CCC(=O)O)C(=O)N[C@@H](Cc1ccccc1)C(=O)N[C@H](C(=O)N[C@@H](CCC(=O)O)C(=O)N[C@@H](Cc1c[nH]c2ccccc12)C(=O)N[C@@H](CC(C)C)C(=O)N[C@@H](CCCCN)C(=O)N[C@@H](CC(N)=O)C(=O)N[C@H](C(=O)NCC(=O)N1CCC[C@H]1C(=O)N[C@@H](CO)C(=O)N[C@@H](CO)C(=O)NCC(=O)N[C@@H](C)C(=O)N1CCC[C@H]1C(=O)N1CCC[C@H]1C(=O)N1CCC[C@H]1C(=O)N[C@@H](CO)C(N)=O)[C@@H](C)O)[C@@H](C)CC)C(=O)O

Experiments:
Test in all cases: cell-based or functional assay
human GLP-1 receptor = human GLP-1 receptor (human, UniProt P43220 24-463)
human GIP receptor = molecular target: T1, human GIP receptor
human glucagon receptor = human glucagon receptor (human, UniProt P47871 26-477)
Sequence of human glucagon receptor (P47871 26-477): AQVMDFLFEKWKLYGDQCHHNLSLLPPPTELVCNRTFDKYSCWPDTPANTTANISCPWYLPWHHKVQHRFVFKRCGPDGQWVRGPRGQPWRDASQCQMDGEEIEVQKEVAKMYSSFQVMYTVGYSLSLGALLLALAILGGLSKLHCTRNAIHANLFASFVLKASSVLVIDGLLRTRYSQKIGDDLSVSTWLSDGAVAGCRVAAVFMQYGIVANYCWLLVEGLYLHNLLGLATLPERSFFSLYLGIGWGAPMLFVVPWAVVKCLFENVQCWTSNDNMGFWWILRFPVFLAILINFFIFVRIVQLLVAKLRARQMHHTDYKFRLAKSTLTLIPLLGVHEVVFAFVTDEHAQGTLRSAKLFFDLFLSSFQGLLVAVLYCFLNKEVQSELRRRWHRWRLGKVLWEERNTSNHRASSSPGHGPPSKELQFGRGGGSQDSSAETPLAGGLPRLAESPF

Row | Binder | EC50 hGLP-1 R (human GLP-1 receptor) [pM] | EC50 hGIP R (human GIP receptor) [pM] | EC50 hGLUC R (human glucagon receptor) [pM]
1 | B1 | 66.8 | 105 | 2620
2 | B2 | 16.1 | 15.6 | 18300
3 | B3 | 4.6 | 162 | 19.9
4 | B4 | 7.1 | 15.7 | 14400
5 | B5 | 12.5 | 8.6 | 16000
6 | B6 | 7.5 | 17.5 | 12300

From patent publication US20140213513A1 (Sanofi, priority 2012, published 2014)
